The target of this experiment is T1, ERK2-phosphorylated human PPARγ2 AF-1 domain (pS112 + pT75), residues 1-136 (human, UniProt P37231-1 1-136).
T1 sequence: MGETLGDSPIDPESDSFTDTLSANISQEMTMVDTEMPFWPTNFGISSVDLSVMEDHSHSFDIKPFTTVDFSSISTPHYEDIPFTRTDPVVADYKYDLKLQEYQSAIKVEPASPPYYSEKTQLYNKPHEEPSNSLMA
Briefly: NMR titration.

B1: Pin1 PPIase domain (residues 42-163) (domain or fragment)
chain: SSGGKNGQGEPARVRCSHLLVKHSQSRRPSSWRQEKITRTKEEALELINGYIQKIKSGEEDFESLASQFSDCSSAKARGDLGAFSRGQMQKPFEDASFALRTGEMSGPVFTDSGIHIILRTE
Consider B1, for which the binding result is recorded as “binds”.

Source of the values: PMC11291072 (bioRxiv, 2024).
